# Measurements reported in patent US20250018014A1, “METHOD FOR TREATING AND/OR PREVENTING REGNASE-1-RELATED DISEASE” (OSAKA UNIVERSITY, priority 2018, published 2025).
# T1: full-length human Regnase-1 with a FLAG tag on the N-terminal side and a biotin ligase BirA recognition … (human, UniProt Q5D1E8 1-599, biotinylated at the BirA recognition sequence when required)
# T1 sequence: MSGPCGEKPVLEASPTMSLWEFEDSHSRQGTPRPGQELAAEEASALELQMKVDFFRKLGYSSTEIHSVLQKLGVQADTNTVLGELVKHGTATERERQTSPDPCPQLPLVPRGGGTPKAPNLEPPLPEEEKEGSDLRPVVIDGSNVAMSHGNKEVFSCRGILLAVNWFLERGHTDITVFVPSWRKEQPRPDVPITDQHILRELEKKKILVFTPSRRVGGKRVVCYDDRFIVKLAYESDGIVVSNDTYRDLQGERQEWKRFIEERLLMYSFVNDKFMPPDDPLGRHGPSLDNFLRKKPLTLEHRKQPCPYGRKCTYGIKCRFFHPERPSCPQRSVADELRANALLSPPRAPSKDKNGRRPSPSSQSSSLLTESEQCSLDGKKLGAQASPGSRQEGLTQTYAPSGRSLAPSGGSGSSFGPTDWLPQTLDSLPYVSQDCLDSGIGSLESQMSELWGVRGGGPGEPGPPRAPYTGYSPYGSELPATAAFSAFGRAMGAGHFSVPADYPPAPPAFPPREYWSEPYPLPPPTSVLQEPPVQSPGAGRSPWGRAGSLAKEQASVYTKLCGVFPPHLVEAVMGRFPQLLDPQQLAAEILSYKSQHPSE
# T2: C-terminal human Regnase-1 (amino acids 301 to 599) with N-terminal FLAG tag and C-terminal BirA recognition … (human, UniProt Q5D1E8 301-599)
# T2 sequence: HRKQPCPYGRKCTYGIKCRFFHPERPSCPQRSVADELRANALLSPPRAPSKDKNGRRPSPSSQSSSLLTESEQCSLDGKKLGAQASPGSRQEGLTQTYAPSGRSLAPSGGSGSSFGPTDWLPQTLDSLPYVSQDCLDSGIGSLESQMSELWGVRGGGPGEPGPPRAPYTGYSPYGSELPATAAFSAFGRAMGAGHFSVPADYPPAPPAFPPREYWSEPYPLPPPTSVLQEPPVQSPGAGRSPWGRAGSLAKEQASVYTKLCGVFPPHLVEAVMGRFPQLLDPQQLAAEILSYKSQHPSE
# T3: C-terminal domain-deleted human Regnase-1 (amino acids 1 to 546) with N-terminal FLAG tag and C-terminal BirA … (human, UniProt Q5D1E8 1-546)
# T3 sequence: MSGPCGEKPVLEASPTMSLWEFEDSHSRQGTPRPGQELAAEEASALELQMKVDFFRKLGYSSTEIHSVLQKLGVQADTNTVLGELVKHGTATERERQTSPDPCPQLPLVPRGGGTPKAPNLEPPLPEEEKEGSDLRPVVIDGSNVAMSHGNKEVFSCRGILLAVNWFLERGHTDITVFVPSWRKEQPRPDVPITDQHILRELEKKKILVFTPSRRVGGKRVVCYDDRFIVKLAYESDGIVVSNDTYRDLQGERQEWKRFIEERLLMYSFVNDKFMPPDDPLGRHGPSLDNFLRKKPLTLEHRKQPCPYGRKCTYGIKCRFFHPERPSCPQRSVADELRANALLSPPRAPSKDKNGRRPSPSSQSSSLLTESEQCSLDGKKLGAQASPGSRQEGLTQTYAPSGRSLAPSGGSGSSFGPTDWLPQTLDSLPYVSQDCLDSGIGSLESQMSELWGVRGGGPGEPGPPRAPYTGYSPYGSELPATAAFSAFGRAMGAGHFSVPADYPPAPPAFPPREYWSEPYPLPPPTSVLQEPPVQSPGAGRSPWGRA
# B1: PP14 (peptide)
# peptide: XRFGVWSWIYPD
# HELM: PEPTIDE1{[meA].R.F.G.V.W.S.W.I.Y.P.D.[C1CCN([*:1])C1]}$PEPTIDE1,PEPTIDE1,1:R1-12:R3$$$V2.0
# SMILES: CC[C@H](C)[C@@H]1NC(=O)[C@H](Cc2c[nH]c3ccccc23)NC(=O)[C@H](CO)NC(=O)[C@H](Cc2c[nH]c3ccccc23)NC(=O)[C@H](C(C)C)NC(=O)CNC(=O)[C@H](Cc2ccccc2)NC(=O)[C@H](CCCNC(=N)N)NC(=O)[C@H](C)N(C)C(=O)C[C@@H](C(=O)N2CCCC2)NC(=O)[C@@H]2CCCN2C(=O)[C@H](Cc2ccc(O)cc2)NC1=O
# B2: PP15 (peptide)
# peptide: XNSWYINIWGHD
# HELM: PEPTIDE1{[meA].N.S.W.Y.I.N.I.W.G.H.D.[C1CCN([*:1])C1]}$PEPTIDE1,PEPTIDE1,1:R1-12:R3$$$V2.0
# SMILES: CC[C@H](C)[C@@H]1NC(=O)[C@H](CC(N)=O)NC(=O)[C@H]([C@@H](C)CC)NC(=O)[C@H](Cc2ccc(O)cc2)NC(=O)[C@H](Cc2c[nH]c3ccccc23)NC(=O)[C@H](CO)NC(=O)[C@H](CC(N)=O)NC(=O)[C@H](C)N(C)C(=O)C[C@@H](C(=O)N2CCCC2)NC(=O)[C@H](Cc2c[nH]cn2)NC(=O)CNC(=O)[C@H](Cc2c[nH]c3ccccc23)NC1=O
# B3: PP17 (peptide)
# peptide: XDIWFDYWDWD
# HELM: PEPTIDE1{[meA].D.I.W.F.D.Y.W.D.W.D.[C1CCN([*:1])C1]}$PEPTIDE1,PEPTIDE1,1:R1-11:R3$$$V2.0
# SMILES: CC[C@H](C)[C@@H]1NC(=O)[C@H](CC(=O)O)NC(=O)[C@H](C)N(C)C(=O)C[C@@H](C(=O)N2CCCC2)NC(=O)[C@H](Cc2c[nH]c3ccccc23)NC(=O)[C@H](CC(=O)O)NC(=O)[C@H](Cc2c[nH]c3ccccc23)NC(=O)[C@H](Cc2ccc(O)cc2)NC(=O)[C@H](CC(=O)O)NC(=O)[C@H](Cc2ccccc2)NC(=O)[C@H](Cc2c[nH]c3ccccc23)NC1=O
# B4: PP16 (peptide)
# peptide: XNFSNSWYNIWD
# HELM: PEPTIDE1{[meA].N.F.S.N.S.W.Y.N.I.W.D.[C1CCN([*:1])C1]}$PEPTIDE1,PEPTIDE1,1:R1-12:R3$$$V2.0
# SMILES: CC[C@H](C)[C@@H]1NC(=O)[C@H](CC(N)=O)NC(=O)[C@H](Cc2ccc(O)cc2)NC(=O)[C@H](Cc2c[nH]c3ccccc23)NC(=O)[C@H](CO)NC(=O)[C@H](CC(N)=O)NC(=O)[C@H](CO)NC(=O)[C@H](Cc2ccccc2)NC(=O)[C@H](CC(N)=O)NC(=O)[C@H](C)N(C)C(=O)C[C@@H](C(=O)N2CCCC2)NC(=O)[C@H](Cc2c[nH]c3ccccc23)NC1=O
# Biological target: T1, full-length human Regnase-1 with a FLAG …
# Test: cell-based or functional assay
row,"50% inhibition concentration, Regnase-1 phosphorylation by TBK1 (AlphaScreen) [µM]",Binder
1,3.1,B1
2,8.5,B2
3,< 0.06,B3
4,52.4,B4

# Biological target: T2, C-terminal human Regnase-1 (amino acids …)
# Test: cell-based or functional assay
row,"50% inhibition concentration, Regnase-1 phosphorylation by TBK1 (AlphaScreen) [µM]",Binder
1,6.8,B1
2,17.4,B2
3,< 0.06,B3
4,> 62.1,B4

# Biological target: T3, C-terminal domain-deleted human …
# Test: cell-based or functional assay
row,"50% inhibition concentration, Regnase-1 phosphorylation by TBK1 (AlphaScreen) [µM]",Binder
1,5.2,B1
2,9.5,B2
3,0.3,B3
4,38.1,B4

# Biological target: T1, full-length human Regnase-1 with a FLAG …
# Test: cell-based or functional assay
# Remark: another data set of the same source
row,"50% inhibition concentration, Regnase-1 phosphorylation by IKKβ (AlphaScreen) [µM]",Binder
1,1.6,B1
2,5.6,B2
3,0.5,B3
4,20.6,B4

# Biological target: T2, C-terminal human Regnase-1 (amino acids …)
# Test: cell-based or functional assay
# Remark: another data set of the same source
row,"50% inhibition concentration, Regnase-1 phosphorylation by IKKβ (AlphaScreen) [µM]",Binder
1,6.5,B1
2,22,B2
3,0.7,B3
4,42.2,B4

# Biological target: T3, C-terminal domain-deleted human …
# Test: cell-based or functional assay
# Remark: another data set of the same source
row,"50% inhibition concentration, Regnase-1 phosphorylation by IKKβ (AlphaScreen) [µM]",Binder
1,9,B1
2,31,B2
3,0.3,B3
4,30.8,B4
